According to PMC12440827 (Nature structural & molecular biology, 2025):

Biological target: FIP200 N-terminal domain (1-640), untagged, of the ULK1C core (human, UniProt Q8TDY2 1-640)
Assay: cryo-EM structure; ULK1C (2:1:1) core, SEC peak in 25 mM HEPES pH 7.5, 150 mM NaCl, 1 mM MgCl2, 1 mM TCEP; graphene grids, 300 kV Titan Krios
Details: both partners purified

Chain of FIP200 N-terminal domain (1-640), untagged, of the ULK1C core (Q8TDY2 1-640): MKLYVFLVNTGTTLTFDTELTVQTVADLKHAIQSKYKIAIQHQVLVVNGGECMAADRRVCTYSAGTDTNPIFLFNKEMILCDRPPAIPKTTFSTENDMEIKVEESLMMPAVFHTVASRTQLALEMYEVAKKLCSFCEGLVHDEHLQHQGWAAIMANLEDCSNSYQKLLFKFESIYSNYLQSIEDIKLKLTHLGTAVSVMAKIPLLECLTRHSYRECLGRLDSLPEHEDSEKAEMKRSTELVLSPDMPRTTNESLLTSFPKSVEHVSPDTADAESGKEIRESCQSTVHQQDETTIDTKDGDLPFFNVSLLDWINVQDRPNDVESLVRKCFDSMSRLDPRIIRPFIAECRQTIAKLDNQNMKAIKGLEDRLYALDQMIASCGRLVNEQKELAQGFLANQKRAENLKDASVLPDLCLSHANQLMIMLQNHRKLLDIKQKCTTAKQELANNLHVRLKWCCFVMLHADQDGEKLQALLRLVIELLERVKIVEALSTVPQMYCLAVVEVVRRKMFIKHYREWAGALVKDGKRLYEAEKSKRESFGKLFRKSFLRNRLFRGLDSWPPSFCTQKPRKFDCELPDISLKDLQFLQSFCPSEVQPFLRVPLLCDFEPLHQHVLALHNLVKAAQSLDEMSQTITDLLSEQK

binding result: binds
B1: ATG13 (363-517), the ATG13 part of the ATG13-ULK1 fusion chain (domain or fragment, human, UniProt O75143 363-517, looked up)
chain: HDVLETIFVRKVGAFVNKPINQVTLTSLDIPFAMFAPKNLELEDTDPMVNPPDSPETESPLQGSLHSDGSSGGSSGNTHDDFVMIDFKPAFSKDDILPMDLGTFYREFQNPPQLSSLSIDIGAQSMAEDLDSLPEKLAVHEKNVREFDAFVETLQ
